Laboratory results as given in article PMC5193401, “Redox Balance in Lactobacillus reuteri DSM20016: Roles of Iron-Dependent Alcohol Dehydrogenases in Glucose/ Glycerol Metabolism” (PLoS ONE, 2016).

Columns and labels:
Assay in all cases: purified protein
Type in all cases: biochemical, Limosilactobacillus reuteri
purified protein [1] = substrate: NC(=O)C1=CN([C@@H]2O[C@H](COP(=O)(O)OP(=O)(O)OC[C@H]3O[C@@H](n4cnc5c(N)ncnc54)[C@H](O)[C@@H]3O)[C@@H](O)[C@H]2O)C=CC1; settings: 3-HPA reduction (standard 100 mM 3-HPA), 50 mM potassium phosphate pH 7.0, 30°C, pH 7.0, varied: cofactor
purified protein [2] = substrate: O=CCCO; settings: 3-HPA reduction (standard 0.2 mM NADH), 50 mM potassium phosphate pH 7.0, 30°C, 3-HPA produced from glycerol by resting cells (equilibrates with hydrate and dimer), pH 7.0
purified protein [3] = substrate: NC(=O)c1ccc[n+]([C@@H]2O[C@H](COP(=O)(O)OP(=O)(O)OC[C@H]3O[C@@H](n4cnc5c(N)ncnc54)[C@H](O)[C@@H]3O)[C@@H](O)[C@H]2O)c1; settings: 1,3-PDO oxidation (standard 500 mM 1,3-PDO), 50 mM Tris-HCl pH 9.0, 30°C, pH 9.0, varied: cofactor

Protein | Km (purified protein [1]; error exceeds value) | Vmax (purified protein [1]; error exceeds value) | kcat (purified protein [1]; error exceeds value) | kcat/Km (purified protein [1]; error exceeds value) | Km (purified protein [2]) | Vmax (purified protein [2]) | kcat (purified protein [2]) | kcat/Km (purified protein [2]) | Km (purified protein [3]) | Vmax (purified protein [3]) | kcat (purified protein [3]) | kcat/Km (purified protein [3]) | Km (purified protein [1]) | Vmax (purified protein [1]) | kcat (purified protein [1]) | kcat/Km (purified protein [1])
ADH7-His6 (Limosilactobacillus reuteri subsp. reuteri) (protein, full length 390 residues (42181 Da), His6 tag from pET21a kept, E. coli BL21(DE3), Ni-NTA purified) MNRQFDFLMPSVNFFGPGVIAKIGDRAKMLNMHKPLIVTTEGLSKIDNGPVKQTVASLEKAGVDYAVFTGAEPNPKIRNVQAGKKMYQDENCDSIITVGGGSAHDCGKGIGIVLTNGDDISKLAGIETLKNPLPPLMAVNTTAGTGSELTRHAVITNEKTHLKFVVVSWRNIPLVSFNDPMLMLDIPKDITAATGCDAFVQAIEPYVSVDHNPITDSQCKEAIQLIQTALPEVVANGHNIEARTKMVEAEMLAGMAFNNANLGYVHAMAHQLGGQYDAPHGVCCALLLTTVEEYNLIACPERFAELAKVMGFDTTGLTLYEAAQKSIDGMREMCRLVGIPSSIKEIGAKPEDFEMMAKNALKDGNAFSNPRKGTVEDIVKLYQKAYDGIY | 0.04 ± 0.12 mM | 33 µmol/min/mg | 11.3 ± 1.9 s⁻¹ | 282000 M⁻¹ s⁻¹ | 9.9 ± 1.1 mM | 29.3 µmol/min/mg | 13.2 ± 3 s⁻¹ | 1330 M⁻¹ s⁻¹ | 1.2 ± 0.1 mM | 4.1 µmol/min/mg | 3.2 ± 0.9 s⁻¹ | 2670 M⁻¹ s⁻¹ |  |  |  | 
PduQ-His6 (Limosilactobacillus reuteri subsp. reuteri) (protein, full length 373 residues (40361 Da), His6 tag from pET21a kept, E. coli BL21(DE3), Ni-NTA purified) MEKYSMPTRIYSGTDSLKELETLNNERILLVCDSFLPGSDTLKEIESHIKDNNKCEIFSDVVPDPPLDKIMEGVQQFLKLKPTIVIGIGGGSALDTGKGIRFFGEKLGKCKINEYIAIPTTSGTGSEVTNTAVISDTKEHRKIPILEDYLTPDCALLDPKLVMTAPKSVTAYSGMDVLTHALESLVAKDANLFTVALSEEAIDAVIKHLVECYRHGDNVDARKIVHEASNIAGTAFNIAGLGICHSIAHQLGANFHVPHGLANTMLLPYVIAYNAEHSEEALHKFAIAAKKAGIAAPGVGDRLAVKRLIAKIREMARQMNCPMTLQAFGVDPAKAEELADTVVANAKKDATFPGNPVVPSDNDLKMVYEAIIR |  |  |  |  | 14.5 ± 1.7 mM | 14.8 µmol/min/mg | 9.9 ± 0.6 s⁻¹ | 640 M⁻¹ s⁻¹ | 0.8 ± 0.1 mM | 3.9 µmol/min/mg | 2.6 ± 0.1 s⁻¹ | 3490 M⁻¹ s⁻¹ | 0.04 ± 0.01 mM | 12.6 µmol/min/mg | 8.5 ± 0.5 s⁻¹ | 237000 M⁻¹ s⁻¹
